Assay results taken from patent US20100260765A1 (AstraZeneca / MedImmune, published 2010).

Experiments:
Assay in all cases: cell-based or functional assay
KDR [1] = biological target: T1, KDR (human, UniProt P35968 20-1356)
KDR [2] = biological target: T1, KDR; remark: listed apart in the source
KDR [3] = biological target: T1, KDR; remark: listed apart in the source
KDR [4] = biological target: T1, KDR; remark: listed apart in the source
KDR [5] = biological target: T1, KDR; remark: listed apart in the source

T1 sequence (P35968 20-1356): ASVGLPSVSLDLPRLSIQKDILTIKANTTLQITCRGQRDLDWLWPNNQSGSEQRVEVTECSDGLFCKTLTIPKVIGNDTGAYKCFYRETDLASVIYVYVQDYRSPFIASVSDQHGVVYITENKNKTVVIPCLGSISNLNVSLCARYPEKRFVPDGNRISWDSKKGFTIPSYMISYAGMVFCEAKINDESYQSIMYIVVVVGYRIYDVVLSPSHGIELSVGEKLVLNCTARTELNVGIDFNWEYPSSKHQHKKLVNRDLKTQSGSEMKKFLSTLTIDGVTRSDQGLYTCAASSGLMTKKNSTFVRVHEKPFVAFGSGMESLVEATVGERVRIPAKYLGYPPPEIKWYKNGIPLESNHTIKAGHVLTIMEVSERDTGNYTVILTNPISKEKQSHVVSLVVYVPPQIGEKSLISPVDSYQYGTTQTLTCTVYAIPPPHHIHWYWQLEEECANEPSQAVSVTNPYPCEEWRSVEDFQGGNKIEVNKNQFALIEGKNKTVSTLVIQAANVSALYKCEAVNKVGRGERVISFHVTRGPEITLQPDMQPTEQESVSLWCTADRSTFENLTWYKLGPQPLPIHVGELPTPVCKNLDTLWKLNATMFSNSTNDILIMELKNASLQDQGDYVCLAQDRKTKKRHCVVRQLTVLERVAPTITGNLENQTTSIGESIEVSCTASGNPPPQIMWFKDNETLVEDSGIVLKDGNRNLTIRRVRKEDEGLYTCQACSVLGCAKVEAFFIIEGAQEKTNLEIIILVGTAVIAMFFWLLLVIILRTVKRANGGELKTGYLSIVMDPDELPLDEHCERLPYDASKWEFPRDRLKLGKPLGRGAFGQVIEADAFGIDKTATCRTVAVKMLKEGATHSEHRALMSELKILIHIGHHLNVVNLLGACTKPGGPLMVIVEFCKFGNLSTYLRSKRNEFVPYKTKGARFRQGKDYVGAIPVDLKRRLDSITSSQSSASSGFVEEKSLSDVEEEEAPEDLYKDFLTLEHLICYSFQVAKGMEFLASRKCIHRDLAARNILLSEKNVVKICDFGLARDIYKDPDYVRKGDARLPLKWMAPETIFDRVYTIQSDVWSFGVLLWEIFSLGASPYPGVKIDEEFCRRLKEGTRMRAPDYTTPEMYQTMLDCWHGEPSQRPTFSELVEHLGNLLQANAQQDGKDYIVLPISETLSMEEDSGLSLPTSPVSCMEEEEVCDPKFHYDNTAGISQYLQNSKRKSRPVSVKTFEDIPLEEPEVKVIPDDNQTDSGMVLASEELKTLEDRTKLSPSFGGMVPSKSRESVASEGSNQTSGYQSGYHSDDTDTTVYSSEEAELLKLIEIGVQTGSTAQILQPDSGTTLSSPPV

| % of Max VEGF KDR pTyr Activity (at 133 nM antibody concentration), Average (KDR [1]) [%] | % of Max VEGF KDR pTyr Activity (at 133 nM antibody concentration), N = 1 (KDR [1]) [%] | % of Max VEGF KDR pTyr Activity (at 133 nM antibody concentration), N = 2 (KDR [1]) [%] | Activity at 133 nM (% Inhibition), 24-hour Pre-incubation at 37° C., Average (KDR [2]) [%] | Activity at 133 nM (% Inhibition), 24-hour Pre-incubation at 37° C., N = 1 (KDR [2]) [%] | Activity at 133 nM (% Inhibition), 24-hour Pre-incubation at 37° C., N = 2 (KDR [2]) [%] | Activity at 133 nM (% Inhibition), 1-hour Pre-incubation at 4° C., Average (KDR [3]) [%] | Activity at 133 nM (% Inhibition), 1-hour Pre-incubation at 4° C., N = 1 (KDR [3]) [%] | Activity at 133 nM (% Inhibition), 1-hour Pre-incubation at 4° C., N = 2 (KDR [3]) [%] | % Inhibition of VEGF165-mediated 6-keto Prostaglandin F1α release at 133 nM Antibody Concentration, Average (KDR [4]) [%] | % Inhibition of VEGF165-mediated 6-keto Prostaglandin F1α release at 133 nM Antibody Concentration, N = 1 (KDR [4]) [%] | % Inhibition of VEGF165-mediated 6-keto Prostaglandin F1α release at 133 nM Antibody Concentration, N = 2 (KDR [4]) [%] | Binder | Activity at 133 nM Antibody Concentration (% Survival Inhibition), Average (KDR [5]) [%] | Activity at 133 nM Antibody Concentration (% Survival Inhibition), N = 1 (KDR [5]) [%] | Activity at 133 nM Antibody Concentration (% Survival Inhibition), N = 2 (KDR [5]) [%] |
| --- | --- | --- | --- | --- | --- | --- | --- | --- | --- | --- | --- | --- | --- | --- | --- |
| 8 | 6 | 10 | 67 | 45 | 88 | 80 | 78 | 83 | 142 | 106 | 178 | 33C3 (antibody, V domains shown) VH: QVQLVESGGGLVKPGESLRLSCAASGFTFSDYYMSWIRQAPGKGLEWVSYISHGGSTIYYADSVKGRFTISRDNAKNSLYLQMNSLRVEDTAVYFCARDDFWSGYYFNWFDPWGQGALVTVSS VL: DIQMTQYPLSLSASVGDRVTITCRASQSISSFLNWYHQKPGKAPKLLIYGTSSLQSGVPSRFSGSGSGTDFTLTISSLQPEDFATYYCQQTYSIPLTFGGGTNVEIK | 103 | 104 | 102 |
| 13 | 15 | 12 | 80 | 75 | 85 | 68 | 64 | 73 | 95 | 72 | 119 | 29D4 (antibody, V domains shown) VH: QLQLQESGPGLVKPSETLSLTCTVSGGSISSRSNYWGWIRQPPGKGLEWIGTIYYSGHTYYNPSLKSRVSISVDTSKNQFSLKLSSVTATDTALYYCARQQLVLYYFEYWGQGTLVTVSS VL: not shown | 85 | 85 | 85 |
| 16 | 19 | 12 | 26 | 23 | 30 | 44 | 36 | 52 | 19 | 1 | 38 | 29F7 (antibody, V domains shown) VH: QVQLVQSGAEVKKPGASVKVSCKASGYTFTSYDINWVRQATGQGLEWMGWMNPNSGKTGYAQKFQGRVTMTRSTSISTAYMELSSLRSEDTAVYYCARGGYSNLGWFDPWGQGTLVTVSS VL: DIQMTQSPSSVFASVGDRVTITCRASQGISTWLAWYQQKPGKAPKFLIYAASSLQSGVPSRFSGSGSGTDFTLTISSLQPDDFATYYCQQANNFPFTFGPGTKVDIK | -12 | 3 | -27 |
| 9 | 11 | 6 | 57 | 36 | 77 | 79 | 79 | 79 | 76 | 37 | 115 | 32G7 (antibody, V domains shown) VH: EVQLVESGGGLVKPGGSLRLSCAASGFTISSYSMNWVRQAPGKGLEWVSFISSRSNYIYYADSVKGRFTISRDNAKNSLYLQMNSLRAEDTAVYYCSKDDWFEELWGQGTLVTVSS VL: DIQMTQSPSSLSASVGDRVTITCRASQDIRNDLGWYQQKPGKAPKRLIYAASSLQSGVPSRFSGSGSGTEFTLTISSLQPEDFATYYCLQHNSFPWTFGQGTKVEIK | 69 | 70 | 67 |
| 7 | 7 | 7 | 85 | 88 | 82 | 87 | 86 | 88 | 95 | 76 | 114 | 33B1 (antibody, V domains shown) VH: EVQLVESGGGLVKPGGSLRLSCAASGFTFSSYTMNWVRQAPGKGLEWVSFIDSRSSYIYYADSVKGRFTISRDNAKNSLYLQMNSLRAEDTAVYYCSKDDWFEELWGQGTLVTVSS VL: DIQMTQSPSSLSASVGDRVTITCRASQGIRNDLGWYQQKPGKAPKRLIYATSSLQSGVPSRFSGSGSGTEFTLTISSLQPEDFATYYCLHHNSFPWTFGQGTKVEIK | 73 | 80 | 66 |
| 10 | 11 | 8 | 83 | 69 | 97 | 33 | 29 | 37 | 24 | 15 | 33 | 30E3 (antibody, V domains shown) VH: EVQLLESGGGLVQPGGSLRLSCAASGFTFSNYALSWVRQAPGKGLEWVSAISGSGRNTYYADSVKGRFTLSRDNSKNTLFLQMNSLRAEDTAVYYCAKASGDNWGQGTLVTVSS VL: not shown | -16 | -5 | -27 |
| 13 | 17 | 10 | 36 | 25 | 47 | 43 | 35 | 50 | 49 | 12 | 86 | 1G6 (antibody, V domains shown) VH: EVQLLESGGGLVQPGGSLRLSCAASGFTFSSYAMSWVRQAPGKGLEWVSAISGGGGNTYYADSVKGRFTISRDNSKNTLYLQMNSLRAEDTAVYYCSKVATDYWGQGTLVTVSS VL: QPVLTQSSSASASLGSSVKLTCTLSSGHSSYIIAWHQQQPGKAPRYLMKLEGSGSYNKGSGVPDRFSGSSSGADRYLTISNLQFEDEADYYCETWDSYTVVFGGGTKLTVL | 0 | 9 | -10 |
| 12 | 15 | 10 | 23 | 19 | 27 | 32 | 30 | 33 | 25 | 8 | 41 | 29A11 (antibody, V domains shown) VH: EVQLLESGGGLVQPGGSLRLSCAASGFTFSNYAMNWVRQAPGKGLEWVSAISGGGGNTYYADSVKGRFTISRDNSKNTLYLQMNRLRAEDTAVYYCAKASGDDWGQGTLVTVSS VL: not shown | -2 | 6 | -10 |
